This is an account of results in patent US20120322150A1, “Mechanism and Method for Regulating Glycogen Synthase Kinase 3 (GSK3)-Related Kinases” (CARNEGIE INSTITUTION OF WASHINGTON, priority 2009, published 2012).

Data set [1] concerns phospho-myelin basic protein. Briefly: In vitro phosphatase assay using phospho-myelin basic protein. It is filed as biochemical. As for the experimental part: In vitro phosphatase assay using phospho-myelin basic protein was performed according to manufacturer's protocol (New England Biolab. Beverly, Mass.). To examine tyrosine phosphatase activity of BSU 1, 20 mM p-nitrophenyl phosphate was incubated with MBP-BSD) in 50 uL of reaction buffer (50 mM Tris. pH 7.2, 20 mM NaCl, 5 mM DTT, 10 RIM MgCl2). The reaction was quenched by the addition of 100 uL of 0.5 M NaOH after incubation at 30° C. for 1 hr. p-Nitrophenol production was determined by measuring A405 (extinction coefficient, e=1.78×104 M-tCm J).

Another data set addresses T1, BIN2 (Arabidopsis thaliana, UniProt Q39011).
T1 construct: made in house; host or cells: E. coli
T1 sequence (Q39011 1-380): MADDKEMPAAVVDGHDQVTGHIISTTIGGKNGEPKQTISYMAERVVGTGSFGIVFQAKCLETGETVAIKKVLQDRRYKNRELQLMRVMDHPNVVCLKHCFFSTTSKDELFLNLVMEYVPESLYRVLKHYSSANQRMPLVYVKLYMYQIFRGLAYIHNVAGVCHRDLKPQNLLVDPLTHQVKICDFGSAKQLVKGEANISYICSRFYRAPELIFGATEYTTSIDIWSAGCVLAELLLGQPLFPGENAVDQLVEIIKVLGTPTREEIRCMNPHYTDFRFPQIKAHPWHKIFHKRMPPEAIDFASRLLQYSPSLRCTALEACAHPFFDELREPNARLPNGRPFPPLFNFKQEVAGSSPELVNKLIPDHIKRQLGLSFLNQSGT
The experiment in a line: In vitro BIN2 inhibition assay (BIN2 phosphorylation of BZR1). It is filed as biochemical. As for the experimental part: In vitro BIN2 inhibition assays were performed by 3 hrs co-incubation of MBP-BZR1, GST BIN2, GST BSU1 and ^32P-γATP or pre-incubation of GST-BIN2 with GST-BSU1 for various time followed by adding MBP-BZR1 and 32P-γATP. The examine activities of partial BSU1, N-terminal Kelch (1-363th amino acid) and C-terminal phosphatase (364-793th amino acid) region were used. GST, GST-BSU1, GSTBSU1-Ketch and GST-BSU1-phosphatase were pre-incubated with GST-BIN2 for 1 hr, and further incubated with MBP-BZR1 and ^32P-γATP for 3 hrs.
To test activities of BSU1-YFP, anti-GFP antibody-Protein A beads were used to immunoprecipitate BSU1-YFP from extracts of BSU1-YFP transgenic plants, and non-transgenic wild type plants were used as control. The beads were incubated with GST-BIN2 or GST bin2-1 for 1 hr, and then the beads were removed. The BSU1-treated GST-BIN2 or GST-bin2-1 was further incubated with MBP-BZR1 and ^32P-γATP for 3 hrs.

The subject of data set [2] is phosphorylated BZR1 and BZR2. Briefly: In vitro dephosphorylation of pre-phosphorylated BZR1 and BZR2. Particulars: added after BIN2 and ATP were removed. It is filed as biochemical, Arabidopsis. As for the experimental part:
MBP-BZR1 and GST-BIN2 proteins were expressed and purified from E. coli and maltose or glutathione was removed from the proteins by ultrafiltration using Centricon 30 (Amicon Ultra, Millipore, Billerica, Mass.). To prepare fully phosphorylated BZR1 proteins, MBP-BZR1 protein was incubated with GST BIN2 as 1 to 1 ratio in the kinase buffer containing 100 μM ATP at 30° C. overnight. The protein mixture was incubated with glutathione Sepharose beads to remove GSTBIN2, then with amylose beads to purify MBP-pBZR1. Partially phosphorylated 32Plabeled pBZR1 and pBZR2 were prepared by the same method but MBP-BZR1 or MBP-BZR2 was incubated with GST BIN2 at a 15 to 1 ratio for 3 hrs in the presence of […] 32P-γATP. For dephosphorylation, GST-BSU1 was incubated with fully phosphorylated MBP-pBZR1 and 32P-MBP-pBZR1 or 32 P-MBP-pBZR2 for 12 or 16 Ins, […]

The target in a further data set is T2, PP1 (Homo sapiens, UniProt P36873).
T2 construct: made in house; host or cells: E. coli
T2 sequence (P36873 whole entry): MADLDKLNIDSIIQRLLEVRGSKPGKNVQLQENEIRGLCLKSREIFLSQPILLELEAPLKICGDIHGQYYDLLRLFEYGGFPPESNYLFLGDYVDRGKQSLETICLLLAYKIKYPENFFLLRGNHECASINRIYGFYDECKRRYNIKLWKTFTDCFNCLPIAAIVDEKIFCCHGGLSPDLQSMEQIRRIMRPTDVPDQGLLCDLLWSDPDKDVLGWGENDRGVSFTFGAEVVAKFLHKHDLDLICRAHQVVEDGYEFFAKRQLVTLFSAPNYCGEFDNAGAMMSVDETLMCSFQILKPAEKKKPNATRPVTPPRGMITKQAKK
Briefly: Inhibition of PP1 activity on BIN2. It is filed as biochemical, mammalian. On the procedure: It was next examined whether the mammalian homolog to BSU1, PP1, would dephosphorylate BIN2. A GST-tagged BIN2 was isolated from cells and incubated with PP1 purified from E. coli cells expressing the phosphatase.

B1: BSL1: closest homolog of BSU1 (SEQ ID NO: 28) (protein, listed as Arabidopsis thaliana)
chain: MGSKPWLHPAPQYKTLETFWDDEDDAPGPRCAHTLTAVAATKTHGPRLILFGGATAIEGGSSSVPGIRLAGVTNTVHSYDILTRKWTRLKPAGEPPSPRAAHAAAAVGTMVVFQGGIGPAGHSTDDLYVLDMTNDKFKWHRVVVQGDGPGPRYGHVMDLVSQRYLVTVTGNDGKRALSDAWALDTAQKPYVWQRLNPDGDRPSARMYASGSARSDGMFLLCGGRDTLGAPLGDAYGLLMHRNGQWEWTLAPGVAPSPRYQHAAVFVGARLHVSGGVLRGGRVIDAEASVAVLDTAAGVWLDRNGQVTSARGSKGQIDQDPSFELMRRCRHGAASVGIRIYVHGGLRGDVLLDDFLVAENSTFQSDISSPLLASDRTQQSSTPRFSYAARPPSGSEPSFSMSEGLSLDENSLEKLTEASAAEAEVASSVWRAAQLGAGTLDEEPSTSDASSPIVESTTDGTANEGDVRLHPRAVVVAKETVGSLGGMVRQLSLDQFQNESRRMVPMNNSDVPQPTKKFTRQKSPQGLHKKVIAALLRPRNWKPPGNRKFFLDSYEVGELCYAAEQIFMHEQTVLQLKAPIKVFGDLHGQFGDLMRLFDEYGFPSTAGDITYIDYLFLGDYVDRGQHSLETITLLLALKIEYPENVHLIRGNHEAADINALFGFRLECIERMGENDGIWAWTRFNQLFNYLPLAALIENKIICMHGGIGRSISTVEQIEKIERPITMDAGSLVLMDLLWSDPTENDSIEGLRPNARGPGLVTFGPDRVTEFCKRNKLQLIIRAHECVMDGFERFAQGQLITLFSATNYCGTANNAGAILVVGRGLVIVPKLIHPLPPPILSPENSPEHSGDDAWMQELNIQRPPTPTRGRPQPDFDRSSLAYI
In the case of B1, the “phosphatase activity on phosphorylated myelin basic protein” value in data set [1] (protein purified from E.coli, metal ions 1 mM) was “showed manganese-dependent phosphatase activities”. Also, the “BIN2 phosphorylation of BZR1, co-incubation” value in the data set with BIN2 (co-incubated with BIN2 and BZR1, 32P-γATP, 3 hrs) was “inhibit B1N2 phosphorylation of BZR1 and BZR2”. In data set [2], the “dephosphorylation of pre-phosphorylated BZR1 / BZR2” value was “do not dephosphorylate phosphorylated BZR1 and BZR2”.

B2: PP2: PP1 inhibitor, protein phosphatase inhibitor 2 (protein, UniProt P41236 2-205, looked up)
Protein phosphatase inhibitor …: AASTASHRPIKGILKNKTSTTSSMVASAEQPRGNVDEELSKKSQKWDEMNILATYHPADKDYGLMKIDEPSTPYHSMMGDDEDACSDTEATEAMAPDILARKLAAAEGLEPKYRIQEQESSGEEDSDLSPEEREKKRQFEMKRKLHYNEGLNIKLARQLISKDLHDDDEDEEMLETADGESMNTEESNQGSTPSDQQQNKLRSS
For B2, the “enzymatic activity of PP1 on BIN2” value with PP1 is on record as “inhibited the enzymatic activity of the PP1 phosphatase on BIN2”.

B3: BSU1-D5ION: mutant BSU1, Asp510 to Asn, with reduced phosphatase activity (protein, UniProt Q9LR78 1-793, looked up, variant D510N)
Serine/threonine-protein …: MAPDQSYQYPSPSYESIQTFYDTDEDWPGPRCGHTLTAVFVNNSHQLILFGGSTTAVANHNSSLPEISLDGVTNSVHSFDVLTRKWTRLNPIGDVPSPRACHAAALYGTLILIQGGIGPSGPSDGDVYMLDMTNNKWIKFLVGGETPSPRYGHVMDIAAQRWLVIFSGNNGNEILDDTWALDTRGPFSWDRLNPSGNQPSGRMYASGSSREDGIFLLCGGIDHSGVTLGDTYGLKMDSDNVWTPVPAVAPSPRYQHTAVFGGSKLHVIGGILNRARLIDGEAVVAVLDTETGEWVDTNQPETSASGANRQNQYQLMRRCHHAAASFGSHLYVHGGIREDVLLDDLLVAETSQSSSPEPEEDNPDNYMLLDDYLMDEPKPLSSEPEASSFIMRSTSEIAMDRLAEAHNLPTIENAFYDSAIEGYVPLQHGAETVGNRGGLVRTASLDQSTQDLHKKVISTLLRPKTWTPPANRDFFLSYLEVKHLCDEVEKIFMNEPTLLQLKVPIKVFGNIHGQYGDLMRLFHEYGHPSVEGDITHIDYLFLGDYVDRGQHSLEIIMLLFALKIEYPKNIHLIRGNHESLAMNRIYGFLTECEERMGESYGFEAWLKINQVFDYLPLAALLEKKVLCVHGGIGRAVTIEEIENIERPAFPDTGSMVLKDILWSDPTMNDTVLGIVDNARGEGVVSFGPDIVKAFLERNGLEMILRAHECVIDGFERFADGRLITVFSATNYCGTAQNAGAILVIGRDMVIYPKLIHPHPPPISSSEEDYTDKAWMQELNIEMPPTPARGESSE
B3: the “phosphatase activity of the wild type protein” value in data set [1] (phospho-myelin basic proteins as a substrate) is reported as “about 15%”.

B4: Kelch repeat domain: N-terminal Kelch (1-363th amino acid) region of BSU1 (protein)
chain: MAPDQSYQYPSPSYESIQTFYDTDEDWPGPRCGHTLTAVFVNNSHQLILFGGSTTAVANHNSSLPEISLDGVTNSVHSFDVLTRKWTRLNPIGDVPSPRACHAAALYGTLILIQGGIGPSGPSDGDVYMLDMTNNKWIKFLVGGETPSPRYGHVMDIAAQRWLVIFSGNNGNEILDDTWALDTRGPFSWDRLNPSGNQPSGRMYASGSSREDGIFLLCGGIDHSGVTLGDTYGLKMDSDNVWTPVPAVAPSPRYQHTAVFGGSKLHVIGGILNRARLIDGEAVVAVLDTETGEWVDTNQPETSASGANRQNQYQLMRRCHHAAASFGSHLYVHGGIREDVLLDDLLVAETSQSSSPEPEEDNP
modifications: left off: a dimerising Fc or GST
notes: N-terminal Kelch (1-363th amino acid) region of BSU1
Take B4: in the data set with BIN2 (pre-incubated with BIN2 before adding BZR1), the “BIN2 phosphorylation of BZR1, pre-incubation” value is listed as “showed no effect”.
